Results: patent publication US8580556B2, “Sulfonylurea-responsive repressor proteins” (E. I. du Pont de Nemours and Company, priority 2008, dated 2013)

Test system: tetA promoter (PtetA)-lacZ reporter in E. coli KM3
Type: cell-based
Conditions: for 0.2 ppm 48 hr (colony color intensity, induction by chlorsulfuron) / Control 84 hr (colony color intensity, background activity without inducer): M9 assay plates, colony color intensity by ImageJ; for 0.2 ppm 48 hr (colony color intensity, induction by chlorsulfuron): 0.2 ppm chlorsulfuron as inducer, 48 hr at 30° C.; for Control 84 hr (colony color intensity, background activity without inducer) / relative β-galactosidase activity, inducer Blank: no inducer; for Control 84 hr (colony color intensity, background activity without inducer): 84 hr at 30° C.; for relative β-galactosidase activity, inducer atc / relative β-galactosidase activity, inducer Ci / relative β-galactosidase activity, inducer Cs / relative β-galactosidase activity, inducer Es / relative β-galactosidase activity, inducer Ms / relative β-galactosidase activity, inducer Ns / relative β-galactosidase activity, inducer Blank / relative β-galactosidase activity, inducer Rs / relative β-galactosidase activity, inducer Sm / relative β-galactosidase activity, inducer Ts / relative β-galactosidase activity, inducer Tb: Table 6, reverse repressor hits; for relative β-galactosidase activity, inducer atc: anhydrotetracycline; for relative β-galactosidase activity, inducer Ci: chlorimuron; for relative β-galactosidase activity, inducer Ci / relative β-galactosidase activity, inducer Cs / relative β-galactosidase activity, inducer Es / relative β-galactosidase activity, inducer Ms / relative β-galactosidase activity, inducer Ns / relative β-galactosidase activity, inducer Rs / relative β-galactosidase activity, inducer Sm / relative β-galactosidase activity, inducer Ts / relative β-galactosidase activity, inducer Tb: same plate assay format as Table 4; for relative β-galactosidase activity, inducer Cs: chlorsulfuron; for relative β-galactosidase activity, inducer Es: ethametsulfuron; for relative β-galactosidase activity, inducer Ms: metsulfuron; for relative β-galactosidase activity, inducer Ns: nicosulfuron; for relative β-galactosidase activity, inducer Rs: rimsulfuron; for relative β-galactosidase activity, inducer Sm: sulfometuron; for relative β-galactosidase activity, inducer Ts: thifensulfuron; for relative β-galactosidase activity, inducer Tb: tribenuron

B1: L6-1B03 (protein)
chain: MGSRLDKSKVINSALELLNEVGIEGLTTRKLAQKLGVEQPTLYWHVKNKRALLDALAIEMMDRHATHICPLEGESWQDFLRNNAKSMRCALLSHRDGAKVCLGTRWTEQQYEAAENMLAFLCQQGFSLENALYAVSAVRVFTLGCVLFDQESQVAKEERETPTTASMPPLLRQAWELKDHQGAEPAFLFGLELIICGLEKQLKCESGS
modifications: Sulfonylurea responsive repressor L6-1B03
  0.2 ppm 48 hr/Control 84 hr: 4.6
  0.2 ppm 48 hr (colony color intensity, induction by chlorsulfuron): 30.0
  Control 84 hr (colony color intensity, background activity without inducer): 6.6

B2: L6-5F05 (protein)
chain: MGSRLDKSKVINSALELLNEVGIEGLTTRKLAQKLGVEQPTLYWHVKNKRALLDALAIEMMDRHATHICPLEGESWQDFLRNNAKSMRCALLSHRDGAKVCLGTRWTEQQYEAAENQLAFLCQQGFSLENALYAVSAVRVFTLGCVLFDQELQVAKEERETPTTASMPPLLRQAWELKDHQGAEPAFLFGLELIICGLEKQLKCESGS
modifications: Sulfonylurea responsive repressor L6-5F05
  0.2 ppm 48 hr/Control 84 hr: 4.1
  0.2 ppm 48 hr (colony color intensity, induction by chlorsulfuron): 22.0
  Control 84 hr (colony color intensity, background activity without inducer): 5.4

B3: L6-2C09 (protein)
chain: MGSRLDKSKVINSALELLNEVGIEGLTTRKLAQKLGVEQPTLYWHVKNKRALLDALAIEMMDRHQTHYCPLEGESWQDFLRNTAKSMRCALLSHRDGAKVCLGTRWTEQLYETAENQLAFLCQQGFSLENALYAMSAVRVFTLGCVLFDQELQVAKEERETPTTASMPPLLRQAWELKDHQGAEPAFLFGLELIICGLEKQLKCESGS
modifications: Sulfonylurea responsive repressor L6-2C09
  0.2 ppm 48 hr/Control 84 hr: 2.6
  Control 84 hr (colony color intensity, background activity without inducer): 5.2

B4: L6-2D07 (protein)
chain: MGSRLDKSKVINSALELLNEVGIEGLTTRKLAQKLGVEQPTLYWHVKNKRALLDALAIEMMDRHQTHFCPLEGESWQDFLRNTAKSMRCALLSHRDGAKVCLGTRWTEQQYETAENMLAFLCQQGFSLENALYAMSAVRVFTLGCVLFDQESQVAKEERETPTTASMPPLVRQAWELKDHQGAEPAFLFGLELIICGLEKQLKCESGS
modifications: Sulfonylurea responsive repressor L6-2D07
  0.2 ppm 48 hr/Control 84 hr: 3.4
  0.2 ppm 48 hr (colony color intensity, induction by chlorsulfuron): 20.0
  Control 84 hr (colony color intensity, background activity without inducer): 5.8

B5: L6-3H02: SuR polypeptide, SEQ ID NO: 94 (protein)
chain: MGSRLDKSKVINSALELLNEVGIEGLTTRKLAQKLGVEQPTLYWHVKNKRALLDALAIEMMDRHATHYCPLEGESWQDFLRNTAKSMRCALLSHRDGAKVCLGTRWTEQHYESAENMLAFLCQQGFSLENALYAVSAVRVFTLGCVLFDQESQVAKEERETPTTASMPPLVRQAWELKVHQGAEPAFLFGLELIICGLEKQLKCESGS
modifications: Sulfonylurea responsive repressor L6-3H02
  0.2 ppm 48 hr/Control 84 hr: 2.8
  Control 84 hr (colony color intensity, background activity without inducer): 5.6

B6: L6-4D10 (protein)
chain: MGSRLDKSKVINSALELLNEVGIEGLTTRKLAQKLGVEQPTLYWHVKNKRALLDALAIEMMDRHQTHYCPLEGESWQDFLRNNAKSMRCALLSHRDGAKVCLGTRWTEKQYESAENMLAFLCQQGFSLENALYAVSAVRVFTLGCVLFDQESQVAKEERETPTTASMPPLLRQAWELKDHQGAEPAFLFGLELIICGLEKQLKCESGS
modifications: Sulfonylurea responsive repressor L6-4D10
  0.2 ppm 48 hr/Control 84 hr: 3.7
  Control 84 hr (colony color intensity, background activity without inducer): 5.0

B7: L1-34: library L1 reverse repressor hit (SEQ ID NO: 1206-1213) (protein)
chain: MGSRLDKSKVINSALELLNEVGIEGLTTRKLAQKLGVEQPTLYWHVKNKRALLDALAIEMADRHNTHFCPLEGESWQDFLRNAARSMRCALLSHRDGAKVYLGTARTEKQYETTENVLAFLCQQGFSLENALYAVRAVPRFTLGCVLLDQERQVAKEERETPTTDSMPPLLRQARELTDHQGAEPAFLFGLELIICGLEKQLKCESGS
modifications: rSuR L1-34
  relative β-galactosidase activity, inducer atc: 3.68
  relative β-galactosidase activity, inducer Ci: 0.43
  relative β-galactosidase activity, inducer Cs: 0.85
  relative β-galactosidase activity, inducer Es: 1.33
  relative β-galactosidase activity, inducer Ms: 1.47
  relative β-galactosidase activity, inducer Ns: 2.91
  relative β-galactosidase activity, inducer Blank: 2.37
  relative β-galactosidase activity, inducer Rs: 2.30
  relative β-galactosidase activity, inducer Sm: 2.00
  relative β-galactosidase activity, inducer Ts: 2.97
  relative β-galactosidase activity, inducer Tb: 2.26

B8: L1-33: library L1 reverse repressor hit (SEQ ID NO: 1206-1213) (protein)
chain: MGSRLDKSKVINSALELLNEVGIEGLTTRKLAQKLGVEQPTLYWHVKNKRALLDALAIEMLDRHATHFCPLEGESWQDFLRNNAKSMRCALLSHRDGAKVQLGTAATEKQYETLENKLAFLCQQGFSLENALYAHSAVTQFTLGCVLRDQEGQVAKEERETPTTDSMPPLLRQARELRDHQGAEPAFLFGLELIICGLEKQLKCESGS
modifications: rSuR L1-33
  relative β-galactosidase activity, inducer atc: 8.25
  relative β-galactosidase activity, inducer Ci: 0.76
  relative β-galactosidase activity, inducer Cs: 3.74
  relative β-galactosidase activity, inducer Es: 2.11
  relative β-galactosidase activity, inducer Ms: 4.29
  relative β-galactosidase activity, inducer Ns: 5.34
  relative β-galactosidase activity, inducer Blank: 7.59
  relative β-galactosidase activity, inducer Rs: 10.32
  relative β-galactosidase activity, inducer Sm: 5.02
  relative β-galactosidase activity, inducer Ts: 5.51
  relative β-galactosidase activity, inducer Tb: 4.71

B9: L1-18: library L1 reverse repressor hit (SEQ ID NO: 1206-1213) (protein)
chain: MGSRLDKSKVINSALELLNEVGIEGLTTRKLAQKLGVEQPTLYWHVKNKRALLDALAIEMLDRHLTHFCPLEGESWQDFLRNNAKSMRCALLSHRDGAKVWLGTGFTEKQYETKENRLAFLCQQGFSLENALYAIRAVSRFTLGCVLQDQEPQVAKEERETPTTDSMPPLLRQAVELFDHQGAEPAFLFGLELIICGLEKQLKCESES
modifications: rSuR L1-18
  relative β-galactosidase activity, inducer atc: 2.35
  relative β-galactosidase activity, inducer Ci: 0.36
  relative β-galactosidase activity, inducer Cs: 1.22
  relative β-galactosidase activity, inducer Es: 0.37
  relative β-galactosidase activity, inducer Ms: 0.79
  relative β-galactosidase activity, inducer Ns: 1.44
  relative β-galactosidase activity, inducer Blank: 1.34
  relative β-galactosidase activity, inducer Rs: 2.55
  relative β-galactosidase activity, inducer Sm: 0.94
  relative β-galactosidase activity, inducer Ts: 1.13
  relative β-galactosidase activity, inducer Tb: 1.65

B10: L1-21: library L1 reverse repressor hit (SEQ ID NO: 1206-1213) (protein)
chain: MGSRLDKSKVINSALELLNEVGIEGLTTRKLAQKLGVEQPTLYWHVKNKRALLDALAIEMLDRHATHFCPLEGESWQDFLRNNAKSFRCALLSHRDGAKVCLGTAGTEKQYETLENCLAFLCQQGFSLENALYARSAVVCFTLGCVLFDQEMQVAKEERETPTTDSMPPLLRQAAELLDHQGAEPAFLFGLELIICGLEKQLKCESGS
modifications: rSuR L1-21
  relative β-galactosidase activity, inducer atc: 2.81
  relative β-galactosidase activity, inducer Ci: 0.07
  relative β-galactosidase activity, inducer Cs: 0.89
  relative β-galactosidase activity, inducer Es: 0.61
  relative β-galactosidase activity, inducer Ms: 0.89
  relative β-galactosidase activity, inducer Ns: 2.74
  relative β-galactosidase activity, inducer Blank: 2.88
  relative β-galactosidase activity, inducer Rs: 2.31
  relative β-galactosidase activity, inducer Sm: 2.39
  relative β-galactosidase activity, inducer Ts: 0.79
  relative β-galactosidase activity, inducer Tb: 2.13

B11: L1-25: library L1 reverse repressor hit (SEQ ID NO: 1206-1213) (protein)
chain: MGSRLDKSKVINSALELLNEVGIEGLTTRKLAQKLGVEQPTLYWHVKNKRALLDALAIEMLDRHATHFCPLEGESWQDFLRNTAKSMRCALLSHRDGAKVLLGTATTEKQYETLENLLAFLYQQGFSLENALYAWQAVWRFTLGCVLIDQETQVAKEERETPTTDSMPPLLRQAVELKDHQGAEPAFLFGLELIICGLEKQLKCETGS
modifications: rSuR L1-25
  relative β-galactosidase activity, inducer atc: 1.22
  relative β-galactosidase activity, inducer Ci: 0.11
  relative β-galactosidase activity, inducer Cs: 0.28
  relative β-galactosidase activity, inducer Es: 0.13
  relative β-galactosidase activity, inducer Ms: 0.32
  relative β-galactosidase activity, inducer Ns: 1.21
  relative β-galactosidase activity, inducer Blank: 1.17
  relative β-galactosidase activity, inducer Rs: 1.08
  relative β-galactosidase activity, inducer Sm: 0.63
  relative β-galactosidase activity, inducer Ts: 0.64
  relative β-galactosidase activity, inducer Tb: 1.72
